From the Human Domainome abundance scans (Beltran et al. 2025)

B1: Pre-mRNA-processing factor 40 homolog B, residues 274 to 332; numbered along this chain, Q6NWY9 (parent)
chain: SNREKAKQAFKELLRDKAVPSNASWEQAMKMVVTDPRYSALPKLSEKKQAFNAYKAQRE

Variants of: B1
Test: abundance fitness (aPCA) (normalised: wild type 0, dead -1); higher = more abundant; growth selection in yeast, the domain comes from the species named
Conditions: Homo sapiens

Abundance fitness: each site, then its substitutions
E12: M -0.705 | K -0.469 | D -0.152 | A -0.231 | F -0.718 | W -1.15 | H -0.297 | R -0.62 | P -0.988 | Y -0.817 | N -0.128 | V -0.705 | C -0.602 | G -0.491 | Q -0.249 | S -0.283 | T -0.301 | L -0.632
A18: Y -0.656 | I -0.536 | W -0.473 | P -0.606 | D 0.045 | K -0.043 | M -0.096 | N -0.067 | R -0.035 | E -0.012 | Q 0.101 | H 0.074 | L -0.127 | F -0.539 | V -0.367 | T -0.282 | C 0.007 | S -0.089
K5: H -0.203 | E -0.049 | W -0.553 | M -0.024 | G -0.187 | D -0.012 | L -0.177 | C -0.134 | Q -0.07 | R -0.193 | I -0.171 | Y -0.179 | V -0.063 | N -0.081 | T -0.042 | S -0.055 | P -0.409
V19: R -0.633 | L -0.606 | C -0.583 | E -0.375 | A -0.612 | G -0.479 | S -0.533 | K -0.807 | P -0.477 | Q -0.383 | W -0.589 | H -0.938 | I -0.462 | N -0.598 | D -0.295 | F -0.932 | M -0.32 | T -0.231 | Y -0.992
K17: Y -0.189 | F -0.146 | N -0.07 | A -0.106 | C -0.38 | G -0.599 | D -0.72 | R -0.107 | L -0.605 | E -0.437 | V -0.525 | Q -0.213 | I -0.651 | M -0.038 | P -0.573 | T -0.429 | H -0.239 | S -0.365
P20: A -0.451 | E -0.364 | D -0.395 | C -0.59
A9: C -0.094 | I 0.081 | K -0.196 | V 0.003 | N -0.279 | G -0.292 | T 0.117 | D 0.09 | Q -0.041 | R -0.364 | H -0.458 | M -0.119 | W -0.72 | E -0.038 | F -0.563 | P -0.536 | S -0.106 | Y -0.417 | L -0.092
F10: H -0.132 | P -0.177 | R -0.332 | V -0.511 | L -0.424 | Y -0.282 | M -0.4 | S -0.254 | T -0.048 | K -0.318 | D -0.22 | G -0.277 | C -0.611 | E -0.067 | W -0.869 | I -0.25
L13: G -0.331 | N -0.482 | K -0.388 | R -0.491 | H -0.411 | I -1.12 | V -0.511 | T -0.48 | F -0.668 | Y -0.559 | C -0.244 | A -0.327 | Q -0.286 | M 0.122 | W -1.02 | E -0.377 | D -0.262
E4: Q -0.233 | Y -0.457 | K -0.368 | N -0.074 | W -0.642 | S -0.156 | A -1.5 | D -0.01 | F -0.294 | G -0.374 | R -0.45 | L -0.23 | H -0.082 | P -0.566 | I -0.025 | V -1.08 | M -0.41 | T -0.433 | C -0.668
K7: E 0.135 | G -0.319 | R -0.174 | M 0.144 | S -0.005 | P -0.587 | C -0.276 | Y -0.016 | I -0.055 | Q 0.062 | H 0.065 | N -0.074 | A 0.027 | F 0.104 | T 0.042 | L 0.065 | V 0.124
L14: W -0.963 | H -0.573 | N -0.376 | M -0.639 | D -0.504 | I -1.05 | C -0.483 | G -0.403 | Y -0.925 | R -0.71 | E -0.339 | K -0.408 | Q -0.339 | S -0.384 | A -0.452 | P -0.261 | F -0.683 | V -0.385 | T -0.547
K11: Q 0.343 | P -0.322 | Y -0.155 | N -0.137 | I 0.233 | W 0.082 | L 0.159 | C 0.061 | T 0.217 | R -0.03 | D -0.386 | E 0.004 | S -0.001 | A 0.145 | H -0.17 | G -0.16 | F 0.061
Q8: P -0.42 | L -0.108 | F -0.412 | M -0.416 | Y -0.49 | H -0.341 | I -0.069 | N -0.585 | G -0.301 | S -0.362 | E 0.003 | W -0.581 | R -0.241 | A -0.145 | C -0.386 | T -0.065
N2: L -0.581 | K -0.139 | R -0.324 | W -0.276 | G -0.207 | S -0.208 | H -0.83 | Y -1.01 | Q 0.037 | D 0.033 | M -0.393 | C -0.547 | I -0.46 | T 0.027 | P -0.497 | V -0.849 | A -0.406 | E -0.089
R3: N 0.221 | G -0.084 | M 0.07 | W -0.251 | P 0.034 | S 0.076 | A -0.409 | T -0.062 | I 0.06 | E -0.047 | D 0.036 | F -0.27 | L 0.044 | K 0.308 | H -0.281 | C 0.043
S1: I -0.075 | Y 0.089 | K 0.135 | E -0.206 | F 0.15 | C 0.042 | P -0.478 | V 0.13 | R -0.084 | L 0.045 | T -0.032 | A -0.015 | M -0.364 | D -0.357 | G 0.07 | W -0.417 | N -0.042
R15: H 0.064 | D -0.238 | S -0.214 | P -0.593 | W -0.106 | M 0.219 | Q -0.062 | E 0.046 | F 0.019 | A 0.001 | Y -0.091 | G -0.211 | L -0.097 | V -0.001 | I -0.052 | N 0.015 | C -0.171 | K -0.129
A6: Q 0.009 | T -0.394 | H -0.201 | M -0.539 | V -0.331 | G -0.05 | L -0.566 | I -0.153 | Y -0.56 | S -0.194 | W -0.948 | R -0.381 | D -0.002 | E 0.172 | K -0.243
D16: C -0.933 | W -0.579 | F -1.05 | M -1.03 | R -0.7 | K -0.699 | P -0.875 | H -1.03 | A -0.461 | Q -0.443 | T -0.351 | N -1.23 | L -0.584 | Y -0.888 | V -0.716 | S -0.486
